Results: IntAct's records for PubMed 21802063

B1: Cell adhesion molecule-related/down-regulated by oncogenes (Rattus norvegicus (Rat)), O35158 (parent)
chain: MHPDLGPLWKLLYVLVILCSSVSSDLATYFISEPLSAVQKLGRPVVLHCSAKPVTARISWLHNGKRLDRNTEQIKIHRGTLTILSLNPSLSGCYQCVANNSVGAVVSGPATVSADALADFDSSTMHVITAEKKNTGFIGCRVPESNPKAEVRYKIRGKWLMYSTGNYIILPSGNLQILNVSSKDKGSYKCAAYNPVTSELKVEPAGRKLLVSRPSSDGFHILHPALSQALAVLPHSPVTLECVVSGVPASQVYWLKDGQDCLSGSNWRRLYSHLATASIDPADSGNYSCVVGNNSSGDVKHVTYTVNVLEHASISKGLHDQKVSLGATVRFTCEVHGNPAPNRTWFHNAQPIRPSSRHLTEGSVLKITGVIMEDSGLYQCMADNGIGFMQSTGRLQIEQDSGQRPVIVTAPANVEVTDGDFVTLSCNATGEPVPVIHWYGRHGLITSHPSQVLRSKSRKSHLFRPGDLDPEPVYLIMSQAGSSSLSIQAVTREHAGKYTCEAVNKHGSTQSEAFLTVVPFETNTKAEPVTPSEASQNDERDPRDGSESGLLNLFPVKVHSGGVELPAEKNASVPDAPNILSPPQTHMPDTYTLVWRTGRDGGMPINAYFVKYRKLDDGSGAVGSWHTVRVPGSESELHLTELEPSSLYEVLMVARSAVGEGQPAMLTFRTSKEKMASSKNTQASFPPVGIPKRPVTSEASNSNFGVVLTDSSRHSGVPEAPDRPTISMASETSVYVTWIPRANGGSPITAFKVEYKRMKSSDWLVAAEDIPPSKLSVEVRSLEPGSIYKFRVIVINHYGESFRSSASRPYQVAGFPNRFSNRPITGPHIAYTEAVSDTQIMLKWTYIPSSNNNTPIQGFYIYYRPTDSDNDSDYKRDVVEGSKQWHTIGHLQPETSYDIKMQCFNEGGESEFSNVMICETKVKRVPGASEYPMKELSTPPSSSGNGGNVGPATSPARSSDMLYLIVGCVLGVMVLILLVFIALCLWKSRQQSAIQKYDPPGYLYQGSEINGQMVEYTTLSGTARINGSVHGGFLSKGSLSNGCSHLHHKGPNGVNGILNGTINGGLYSAHTSSLTRTCVEFEHPHHLVNGGAVYTAVPQMDPLECINCRNCRNNNRCFTKTNSPLPVVPVVASYPQDGLEMKPLGVMKFPVCPVSTVPDGGQIPEECLKDSVAPAPTQRTCRQDNTSDINSDSTEDTAEFNRGDSSGHSEAEDKVFSWSPLILSPVLEDCSEKTAWSPPGPPLDGLSVVLQQAQET
partner: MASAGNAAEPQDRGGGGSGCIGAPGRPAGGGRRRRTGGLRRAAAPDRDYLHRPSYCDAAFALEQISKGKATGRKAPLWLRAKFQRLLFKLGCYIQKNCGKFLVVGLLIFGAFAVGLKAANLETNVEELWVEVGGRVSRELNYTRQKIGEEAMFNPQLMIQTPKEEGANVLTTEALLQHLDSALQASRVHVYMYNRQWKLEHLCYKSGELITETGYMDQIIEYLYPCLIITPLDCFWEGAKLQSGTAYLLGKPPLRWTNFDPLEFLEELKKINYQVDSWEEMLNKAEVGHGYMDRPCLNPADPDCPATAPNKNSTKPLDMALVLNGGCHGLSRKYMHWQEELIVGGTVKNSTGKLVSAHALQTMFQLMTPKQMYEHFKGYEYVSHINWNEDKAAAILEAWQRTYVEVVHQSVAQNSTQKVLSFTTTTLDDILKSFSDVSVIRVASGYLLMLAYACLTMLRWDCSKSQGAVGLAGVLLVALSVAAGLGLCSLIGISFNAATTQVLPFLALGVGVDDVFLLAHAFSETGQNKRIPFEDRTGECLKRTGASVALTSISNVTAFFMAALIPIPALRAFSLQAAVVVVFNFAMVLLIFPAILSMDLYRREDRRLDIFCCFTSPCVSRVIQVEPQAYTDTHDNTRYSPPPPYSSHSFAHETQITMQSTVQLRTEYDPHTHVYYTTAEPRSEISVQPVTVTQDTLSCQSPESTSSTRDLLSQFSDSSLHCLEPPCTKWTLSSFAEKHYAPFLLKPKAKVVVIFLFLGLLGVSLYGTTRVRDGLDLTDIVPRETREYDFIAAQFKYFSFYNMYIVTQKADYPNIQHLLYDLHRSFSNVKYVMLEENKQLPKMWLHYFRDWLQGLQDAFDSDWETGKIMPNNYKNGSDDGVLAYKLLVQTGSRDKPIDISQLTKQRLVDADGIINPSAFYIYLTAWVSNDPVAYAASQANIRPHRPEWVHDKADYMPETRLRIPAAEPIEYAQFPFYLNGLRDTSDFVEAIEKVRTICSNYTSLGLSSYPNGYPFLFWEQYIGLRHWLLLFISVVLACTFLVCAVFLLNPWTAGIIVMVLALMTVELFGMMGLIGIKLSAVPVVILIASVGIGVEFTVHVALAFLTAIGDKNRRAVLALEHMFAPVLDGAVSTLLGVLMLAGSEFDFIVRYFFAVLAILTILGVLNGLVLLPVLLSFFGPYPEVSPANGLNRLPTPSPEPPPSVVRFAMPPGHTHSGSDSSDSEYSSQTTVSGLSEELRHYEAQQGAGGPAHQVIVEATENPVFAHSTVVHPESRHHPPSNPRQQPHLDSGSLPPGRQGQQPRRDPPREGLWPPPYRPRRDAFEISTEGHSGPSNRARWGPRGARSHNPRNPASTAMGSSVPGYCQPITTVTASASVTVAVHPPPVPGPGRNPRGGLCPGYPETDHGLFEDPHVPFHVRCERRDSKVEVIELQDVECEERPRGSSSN
B2: Cell adhesion molecule-related/down-regulated by oncogenes (Rattus norvegicus (Rat)), O35158 (parent)
chain: B1 chain
partner: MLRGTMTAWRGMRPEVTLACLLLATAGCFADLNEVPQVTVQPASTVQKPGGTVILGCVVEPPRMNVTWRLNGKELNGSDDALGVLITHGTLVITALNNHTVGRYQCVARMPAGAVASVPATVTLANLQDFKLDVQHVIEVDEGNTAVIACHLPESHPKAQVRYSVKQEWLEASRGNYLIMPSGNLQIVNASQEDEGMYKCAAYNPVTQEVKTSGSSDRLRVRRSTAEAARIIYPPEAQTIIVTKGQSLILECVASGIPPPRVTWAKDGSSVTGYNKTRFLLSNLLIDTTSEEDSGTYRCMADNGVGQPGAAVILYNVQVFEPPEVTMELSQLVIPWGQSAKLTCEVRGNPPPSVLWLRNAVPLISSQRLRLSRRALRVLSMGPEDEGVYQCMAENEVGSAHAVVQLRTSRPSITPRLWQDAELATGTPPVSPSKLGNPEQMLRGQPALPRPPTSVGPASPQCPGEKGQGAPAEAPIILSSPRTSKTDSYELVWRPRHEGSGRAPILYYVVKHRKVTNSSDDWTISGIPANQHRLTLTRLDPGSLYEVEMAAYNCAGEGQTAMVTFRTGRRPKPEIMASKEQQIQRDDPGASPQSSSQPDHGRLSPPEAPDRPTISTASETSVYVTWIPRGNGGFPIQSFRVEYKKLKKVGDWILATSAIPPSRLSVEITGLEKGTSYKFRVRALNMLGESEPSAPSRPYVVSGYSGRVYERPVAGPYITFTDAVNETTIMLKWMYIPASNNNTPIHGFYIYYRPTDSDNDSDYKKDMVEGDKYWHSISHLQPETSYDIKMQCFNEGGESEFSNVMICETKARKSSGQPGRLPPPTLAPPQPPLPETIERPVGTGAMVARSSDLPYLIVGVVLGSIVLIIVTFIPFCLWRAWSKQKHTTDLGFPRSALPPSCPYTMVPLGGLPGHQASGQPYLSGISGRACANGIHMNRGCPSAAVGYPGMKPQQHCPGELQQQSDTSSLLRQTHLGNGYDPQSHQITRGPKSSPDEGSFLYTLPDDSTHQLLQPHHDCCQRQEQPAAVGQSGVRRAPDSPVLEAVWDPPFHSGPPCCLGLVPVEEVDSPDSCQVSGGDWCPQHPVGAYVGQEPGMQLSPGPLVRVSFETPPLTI
B3: Cell adhesion molecule-related/down-regulated by oncogenes (Rattus norvegicus (Rat)), O35158 (parent)
chain: B1 chain
partner: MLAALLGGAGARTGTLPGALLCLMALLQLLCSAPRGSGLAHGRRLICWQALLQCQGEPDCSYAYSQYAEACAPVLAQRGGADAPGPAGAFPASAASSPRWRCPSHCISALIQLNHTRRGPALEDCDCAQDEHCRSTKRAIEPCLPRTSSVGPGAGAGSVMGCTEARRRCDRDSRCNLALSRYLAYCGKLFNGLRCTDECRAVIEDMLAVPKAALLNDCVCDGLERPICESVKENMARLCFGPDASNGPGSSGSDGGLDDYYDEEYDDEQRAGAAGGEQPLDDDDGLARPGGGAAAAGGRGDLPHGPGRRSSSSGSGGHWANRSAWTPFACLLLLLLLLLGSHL

Variants of: B1
Conditions: with ptc1_human PTCH1, Q13635
T681S was tested, and the “effect of a mutation on the interaction” value was “with no effect”.
With S937R the “effect of a mutation on the interaction” value was “decreasing interaction strength”.
I787A was tested, and the “effect of a mutation on the interaction” value was “decreasing interaction strength”.
In the case of P686A, the “effect of a mutation on the interaction” value is reported as “decreasing interaction strength”.
With V777E the “effect of a mutation on the interaction” value was “decreasing interaction strength”.
With V688M the “effect of a mutation on the interaction” value was “decreasing interaction strength”.

Variants of: B2
Conditions: with boc_human BOC
In the case of T681S, the “effect of a mutation on the interaction” value is reported as “with no effect”.
For S937R, the “effect of a mutation on the interaction” value was “with no effect”.
V777E was tested, and the “effect of a mutation on the interaction” value was “with no effect”.
P686A was tested, and the “effect of a mutation on the interaction” value was “decreasing interaction strength”.
V688M was tested, and the “effect of a mutation on the interaction” value was “with no effect”.
I787A was tested, and the “effect of a mutation on the interaction” value was “with no effect”.

Variants of: B3
Conditions: with gas1_mouse Gas1, Q01721
With S937R the “effect of a mutation on the interaction” value was “decreasing interaction strength”.
In the case of I787A, the “effect of a mutation on the interaction” value is reported as “decreasing interaction strength”.
For V688M, the “effect of a mutation on the interaction” value was “with no effect”.
T681S was tested, and the “effect of a mutation on the interaction” value was “with no effect”.
For P686A, the “effect of a mutation on the interaction” value was “decreasing interaction strength”.
With V777E the “effect of a mutation on the interaction” value was “with no effect”.
